Test results as given in PMC11333002, “Molecular dynamics simulations reveal how vinculin refolds partially unfolded talin rod helices to stabilize them against mechanical force” (PLOS Computational Biology, 2024).
Read-outs that look alike come from different tables or passages of the source. Blank lines part the entries; values can stand above or below the molecule they belong to.

Key:
[1] = biological target: mouse talin1 R1 VBS (H4) peptide, fluorescein labelled (mouse); experiment: fluorescence polarisation; fluorescein-labelled VBS peptide at 700 nM, 2-fold serial dilution of protein, triplicate, 25°C; one-site total binding equation
Chain of mouse talin1 R1 VBS (H4) peptide, fluorescein labelled (mouse) (peptide, as listed by the source): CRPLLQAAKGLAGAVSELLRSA

talin = conditions: cited from earlier work
Source text: (Fig 1H). However, how the complexation occurs when the VBS structure is destabilized by force remains unclear. ... || Constant velocity SMD is known to overestimate the unfolding force magnitude, and the measured unfolding forces were approximately one order of magnitude higher when compared to the force required experimentally for vinculin dissociation from talin (above 25 pN). Therefore, to reach unfolding force magnitude within the force range seen in previous studies (<100 pN), we performed microsecond-scale constant force SMD simulations. Using constant force at 70 pN, we achieved limited but noticeable VBS destabilization in the vinculin-bound state within 3 μs. Increasing the fo ... || To assess the thermodynamic parameters of recognition and binding of partially unfolded talin VBS by vinculin, we used umbrella sampling and the weighted histogram analysis method to calculate the vinculin–VBS binding energy profiles. We used two different starting states of VBS: 1) fully α-helical VBS and 2) partially unfolded VBS, stretched by 1.5 nm. This distance was chosen to be consistent with the previously observed contractions upon vinculin binding to R3 (∼1.5–2.5 nm per VBS, depending on force magnitude). The whole process of vinculin–VBS binding was divided into three ... || (+ 2 further places)

fold higher affinity than WT mVD1 [1]: 1.75 fold
Molecule: VD1 domain of mouse vinculin, Q19S (domain or fragment)

B1: vinculin: vinculin in cited magnetic tweezers experiments with talin (protein, UniProt P18206 1-1134, looked up)
Vinculin: MPVFHTRTIESILEPVAQQISHLVIMHEEGEVDGKAIPDLTAPVAAVQAAVSNLVRVGKETVQTTEDQILKRDMPPAFIKVENACTKLVQAAQMLQSDPYSVPARDYLIDGSRGILSGTSDLLLTFDEAEVRKIIRVCKGILEYLTVAEVVETMEDLVTYTKNLGPGMTKMAKMIDERQQELTHQEHRVMLVNSMNTVKELLPVLISAMKIFVTTKNSKNQGIEEALKNRNFTVEKMSAEINEIIRVLQLTSWDEDAWASKDTEAMKRALASIDSKLNQAKGWLRDPSASPGDAGEQAIRQILDEAGKVGELCAGKERREILGTCKMLGQMTDQVADLRARGQGSSPVAMQKAQQVSQGLDVLTAKVENAARKLEAMTNSKQSIAKKIDAAQNWLADPNGGPEGEEQIRGALAEARKIAELCDDPKERDDILRSLGEISALTSKLADLRRQGKGDSPEARALAKQVATALQNLQTKTNRAVANSRPAKAAVHLEGKIEQAQRWIDNPTVDDRGVGQAAIRGLVAEGHRLANVMMGPYRQDLLAKCDRVDQLTAQLADLAARGEGESPQARALASQLQDSLKDLKARMQEAMTQEVSDVFSDTTTPIKLLAVAATAPPDAPNREEVFDERAANFENHSGKLGATAEKAAAVGTANKSTVEGIQASVKTARELTPQVVSAARILLRNPGNQAAYEHFETMKNQWIDNVEKMTGLVDEAIDTKSLLDASEEAIKKDLDKCKVAMANIQPQMLVAGATSIARRANRILLVAKREVENSEDPKFREAVKAASDELSKTISPMVMDAKAVAGNISDPGLQKSFLDSGYRILGAVAKVREAFQPQEPDFPPPPPDLEQLRLTDELAPPKPPLPEGEVPPPRPPPPEEKDEEFPEQKAGEVINQPMMMAARQLHDEARKWSSKPGIPAAEVGIGVVAEADAADAAGFPVPPDMEDDYEPELLLMPSNQPVNQPILAAAQSLHREATKWSSKGNDIIAAAKRMALLMAEMSRLVRGGSGTKRALIQCAKDIAKASDEVTRLAKEVAKQCTDKRIRTNLLQVCERIPTISTQLKILSTVKATMLGRTNISDEESEQATEMLVHNAQNLMQSVKETVREAEAASIKIRTDAGFTLRWVRKTPWYQ
vinculin–VBS binding above 15 pN (talin; above 15 pN, ref [26]): fast transition
increase in talin end-to-end distance on vinculin dissociation (talin; above 25 pN, ref [22],[26]): ~3 nm
contraction per VBS on vinculin binding to R3 (talin; depending on force magnitude, ref [26]): 1.5–2.5 nm
time of vinculin–VBS binding under lower forces (talin; lower forces, ref [26]): within hundreds of milliseconds
force for vinculin dissociation from talin (talin; ref [22],[26]): above 25 pN
reduction in talin end-to-end distance on vinculin binding (talin; talin R3, 9 pN, ref [26]): ~ 1.5 nm
reduction in talin end-to-end distance on vinculin binding (talin; talin R3, 20 pN, ref [26]): ~ 2.5 nm
